In patent publication US20140087995A1 (published 2014):
Numbered stars: 1 amine (or outer) side, 2 acyl side, 3 side chain; on linkers, the order of the positions; unused ones are H or OH. Bridge positions count the residues as written; N and C are the ends. Side chains are listed from the residue outwards. Ends that are not written are not given here. * marks the point of attachment. C20 diacid = O=C(O)CCCCCCCCCCCCCCCCCCC(=O)*; γGlu = O=C(O)[C@H](CCC(=O)[*:2])N[*:1]; AEEA = NCCOCCOCC(=O)O

T1: human amylin receptor (amylin 3(a) receptor: human calcitonin receptor with RAMP-3) (human, UniProt P30988 25-474; O60896 24-148)
T1 construct: whole, on cells; also called hAmylin-R; hAmylinR
T1 sequence (looked up) 1: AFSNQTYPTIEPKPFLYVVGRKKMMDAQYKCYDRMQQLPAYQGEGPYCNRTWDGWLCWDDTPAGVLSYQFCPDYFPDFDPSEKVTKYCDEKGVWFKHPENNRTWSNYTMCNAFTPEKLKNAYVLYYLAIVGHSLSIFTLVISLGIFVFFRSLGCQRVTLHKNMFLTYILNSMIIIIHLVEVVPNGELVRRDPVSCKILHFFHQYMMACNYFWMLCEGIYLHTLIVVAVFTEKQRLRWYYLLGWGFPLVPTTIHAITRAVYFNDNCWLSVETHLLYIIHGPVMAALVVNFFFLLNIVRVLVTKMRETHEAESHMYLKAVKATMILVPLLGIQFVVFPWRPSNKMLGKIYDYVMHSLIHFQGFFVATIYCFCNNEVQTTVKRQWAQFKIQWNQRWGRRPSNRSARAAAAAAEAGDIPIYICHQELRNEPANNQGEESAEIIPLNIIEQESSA
T1 sequence (looked up) 2: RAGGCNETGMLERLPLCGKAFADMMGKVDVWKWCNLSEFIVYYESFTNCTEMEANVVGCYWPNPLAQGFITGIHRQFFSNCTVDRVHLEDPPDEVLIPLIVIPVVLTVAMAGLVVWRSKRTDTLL


Target: T1, human amylin receptor (amylin 3(a) …)
Assay: SPA displacement of 125I-rat amylin, hAmylin 3(a) receptor membranes
Procedure, shortened: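 One-site competition analysis of SPA counts yielded IC₅₀ as a measure of affinity. Membranes were at 35 ng/μL final; incubation was 120 min at 25° C, pH 7.4.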

Row | Binder | IC50
1 | {C20 diacid-γGlu}-KCNTATCATQRLAHFLRHSSPNFGAIPSSTNVGSETY-NH2 (disulfide 2-7; SMILES CC[C@H](C)[C@H](NC(=O)[C@H](C)NC(=O)CNC(=O)[C@H](Cc1ccccc1)NC(=O)[C@H](CC(N)=O)NC(=O)[C@@H]1CCCN1C(=O)[C@H](CO)NC(=O)[C@H](CO)NC(=O)[C@H](Cc1c[nH]cn1)NC(=O)[C@H](CCCNC(=N)N)NC(=O)[C@H](CC(C)C)NC(=O)[C@H](Cc1ccccc1)NC(=O)[C@H](Cc1c[nH]cn1)NC(=O)[C@H](C)NC(=O)[C@H](CC(C)C)NC(=O)[C@H](CCCNC(=N)N)NC(=O)[C@H](CCC(N)=O)NC(=O)[C@@H](NC(=O)[C@H](C)NC(=O)[C@@H]1CSSC[C@H](NC(=O)[C@H](CCCCN)NC(=O)CC[C@H](NC(=O)CCCCCCCCCCCCCCCCCCC(=O)O)C(=O)O)C(=O)N[C@@H](CC(N)=O)C(=O)N[C@@H]([C@@H](C)O)C(=O)N[C@@H](C)C(=O)N[C@@H]([C@@H](C)O)C(=O)N1)[C@@H](C)O)C(=O)N1CCC[C@H]1C(=O)N[C@@H](CO)C(=O)N[C@@H](CO)C(=O)N[C@H](C(=O)N[C@@H](CC(N)=O)C(=O)N[C@H](C(=O)NCC(=O)N[C@@H](CO)C(=O)N[C@@H](CCC(=O)O)C(=O)N[C@H](C(=O)N[C@@H](Cc1ccc(O)cc1)C(N)=O)[C@@H](C)O)C(C)C)[C@@H](C)O, also called 30; compound 30) | 919 pM
2 | {C20 diacid-γGlu}-KCNTATCATQRLAEFLRHSSPNFGAIPSSTNVGSETY-NH2 (disulfide 2-7; SMILES CC[C@H](C)[C@H](NC(=O)[C@H](C)NC(=O)CNC(=O)[C@H](Cc1ccccc1)NC(=O)[C@H](CC(N)=O)NC(=O)[C@@H]1CCCN1C(=O)[C@H](CO)NC(=O)[C@H](CO)NC(=O)[C@H](Cc1c[nH]cn1)NC(=O)[C@H](CCCNC(=N)N)NC(=O)[C@H](CC(C)C)NC(=O)[C@H](Cc1ccccc1)NC(=O)[C@H](CCC(=O)O)NC(=O)[C@H](C)NC(=O)[C@H](CC(C)C)NC(=O)[C@H](CCCNC(=N)N)NC(=O)[C@H](CCC(N)=O)NC(=O)[C@@H](NC(=O)[C@H](C)NC(=O)[C@@H]1CSSC[C@H](NC(=O)[C@H](CCCCN)NC(=O)CC[C@H](NC(=O)CCCCCCCCCCCCCCCCCCC(=O)O)C(=O)O)C(=O)N[C@@H](CC(N)=O)C(=O)N[C@@H]([C@@H](C)O)C(=O)N[C@@H](C)C(=O)N[C@@H]([C@@H](C)O)C(=O)N1)[C@@H](C)O)C(=O)N1CCC[C@H]1C(=O)N[C@@H](CO)C(=O)N[C@@H](CO)C(=O)N[C@H](C(=O)N[C@@H](CC(N)=O)C(=O)N[C@H](C(=O)NCC(=O)N[C@@H](CO)C(=O)N[C@@H](CCC(=O)O)C(=O)N[C@H](C(=O)N[C@@H](Cc1ccc(O)cc1)C(N)=O)[C@@H](C)O)C(C)C)[C@@H](C)O, also called 22; compound 22) | 794 pM
3 | K([AEEA-AEEA-γGlu-C20 diacid])CNTATCATQRLANFLRHSSPNFGAIPSSTNVGRNTY-NH2 (disulfide 2-7; N-terminus assumed; SMILES CC[C@H](C)[C@H](NC(=O)[C@H](C)NC(=O)CNC(=O)[C@H](Cc1ccccc1)NC(=O)[C@H](CC(N)=O)NC(=O)[C@@H]1CCCN1C(=O)[C@H](CO)NC(=O)[C@H](CO)NC(=O)[C@H](Cc1c[nH]cn1)NC(=O)[C@H](CCCNC(=N)N)NC(=O)[C@H](CC(C)C)NC(=O)[C@H](Cc1ccccc1)NC(=O)[C@H](CC(N)=O)NC(=O)[C@H](C)NC(=O)[C@H](CC(C)C)NC(=O)[C@H](CCCNC(=N)N)NC(=O)[C@H](CCC(N)=O)NC(=O)[C@@H](NC(=O)[C@H](C)NC(=O)[C@@H]1CSSC[C@H](NC(=O)[C@@H](N)CCCCNC(=O)COCCOCCNC(=O)COCCOCCNC(=O)CC[C@H](NC(=O)CCCCCCCCCCCCCCCCCCC(=O)O)C(=O)O)C(=O)N[C@@H](CC(N)=O)C(=O)N[C@@H]([C@@H](C)O)C(=O)N[C@@H](C)C(=O)N[C@@H]([C@@H](C)O)C(=O)N1)[C@@H](C)O)C(=O)N1CCC[C@H]1C(=O)N[C@@H](CO)C(=O)N[C@@H](CO)C(=O)N[C@H](C(=O)N[C@@H](CC(N)=O)C(=O)N[C@H](C(=O)NCC(=O)N[C@@H](CCCNC(=N)N)C(=O)N[C@@H](CC(N)=O)C(=O)N[C@H](C(=O)N[C@@H](Cc1ccc(O)cc1)C(N)=O)[C@@H](C)O)C(C)C)[C@@H](C)O, also called 95; compound 95) | 967 pM

Continued by falling IC50, values first:

Row | IC50 | Binder
4 | 196 pM | {C20 diacid-γGlu-γGlu}-KCNTATCATQRLAEFLRHSSPNFGAIPSSTNVGSNTP-NH2 (disulfide 2-7; SMILES CC[C@H](C)[C@H](NC(=O)[C@H](C)NC(=O)CNC(=O)[C@H](Cc1ccccc1)NC(=O)[C@H](CC(N)=O)NC(=O)[C@@H]1CCCN1C(=O)[C@H](CO)NC(=O)[C@H](CO)NC(=O)[C@H](Cc1c[nH]cn1)NC(=O)[C@H](CCCNC(=N)N)NC(=O)[C@H](CC(C)C)NC(=O)[C@H](Cc1ccccc1)NC(=O)[C@H](CCC(=O)O)NC(=O)[C@H](C)NC(=O)[C@H](CC(C)C)NC(=O)[C@H](CCCNC(=N)N)NC(=O)[C@H](CCC(N)=O)NC(=O)[C@@H](NC(=O)[C@H](C)NC(=O)[C@@H]1CSSC[C@H](NC(=O)[C@H](CCCCN)NC(=O)CC[C@H](NC(=O)CC[C@H](NC(=O)CCCCCCCCCCCCCCCCCCC(=O)O)C(=O)O)C(=O)O)C(=O)N[C@@H](CC(N)=O)C(=O)N[C@@H]([C@@H](C)O)C(=O)N[C@@H](C)C(=O)N[C@@H]([C@@H](C)O)C(=O)N1)[C@@H](C)O)C(=O)N1CCC[C@H]1C(=O)N[C@@H](CO)C(=O)N[C@@H](CO)C(=O)N[C@H](C(=O)N[C@@H](CC(N)=O)C(=O)N[C@H](C(=O)NCC(=O)N[C@@H](CO)C(=O)N[C@@H](CC(N)=O)C(=O)N[C@H](C(=O)N1CCC[C@H]1C(N)=O)[C@@H](C)O)C(C)C)[C@@H](C)O, also called 14; compound 14)
5 | 119 pM | K([AEEA-C20 diacid])CNTATCATQRLANFLRHSSPNFGAIPSSTNVGHNTY-NH2 (disulfide 2-7; N-terminus assumed; SMILES CC[C@H](C)[C@H](NC(=O)[C@H](C)NC(=O)CNC(=O)[C@H](Cc1ccccc1)NC(=O)[C@H](CC(N)=O)NC(=O)[C@@H]1CCCN1C(=O)[C@H](CO)NC(=O)[C@H](CO)NC(=O)[C@H](Cc1c[nH]cn1)NC(=O)[C@H](CCCNC(=N)N)NC(=O)[C@H](CC(C)C)NC(=O)[C@H](Cc1ccccc1)NC(=O)[C@H](CC(N)=O)NC(=O)[C@H](C)NC(=O)[C@H](CC(C)C)NC(=O)[C@H](CCCNC(=N)N)NC(=O)[C@H](CCC(N)=O)NC(=O)[C@@H](NC(=O)[C@H](C)NC(=O)[C@@H]1CSSC[C@H](NC(=O)[C@@H](N)CCCCNC(=O)COCCOCCNC(=O)CCCCCCCCCCCCCCCCCCC(=O)O)C(=O)N[C@@H](CC(N)=O)C(=O)N[C@@H]([C@@H](C)O)C(=O)N[C@@H](C)C(=O)N[C@@H]([C@@H](C)O)C(=O)N1)[C@@H](C)O)C(=O)N1CCC[C@H]1C(=O)N[C@@H](CO)C(=O)N[C@@H](CO)C(=O)N[C@H](C(=O)N[C@@H](CC(N)=O)C(=O)N[C@H](C(=O)NCC(=O)N[C@@H](Cc1c[nH]cn1)C(=O)N[C@@H](CC(N)=O)C(=O)N[C@H](C(=O)N[C@@H](Cc1ccc(O)cc1)C(N)=O)[C@@H](C)O)C(C)C)[C@@H](C)O, also called 91; compound 91) [N^ε1-[2-[2-[2-(19-carboxynonadecanoylamino)ethoxy]ethoxy]acetyl]-[Arg17,Pro21,Pro27,His34]-h-amylin]
6 | 61 pM | K([AEEA-C20 diacid])CNTATCATQRLAHFLRHSSPNFGAIPSSTNVGSNTY-NH2 (disulfide 2-7; N-terminus assumed; SMILES CC[C@H](C)[C@H](NC(=O)[C@H](C)NC(=O)CNC(=O)[C@H](Cc1ccccc1)NC(=O)[C@H](CC(N)=O)NC(=O)[C@@H]1CCCN1C(=O)[C@H](CO)NC(=O)[C@H](CO)NC(=O)[C@H](Cc1c[nH]cn1)NC(=O)[C@H](CCCNC(=N)N)NC(=O)[C@H](CC(C)C)NC(=O)[C@H](Cc1ccccc1)NC(=O)[C@H](Cc1c[nH]cn1)NC(=O)[C@H](C)NC(=O)[C@H](CC(C)C)NC(=O)[C@H](CCCNC(=N)N)NC(=O)[C@H](CCC(N)=O)NC(=O)[C@@H](NC(=O)[C@H](C)NC(=O)[C@@H]1CSSC[C@H](NC(=O)[C@@H](N)CCCCNC(=O)COCCOCCNC(=O)CCCCCCCCCCCCCCCCCCC(=O)O)C(=O)N[C@@H](CC(N)=O)C(=O)N[C@@H]([C@@H](C)O)C(=O)N[C@@H](C)C(=O)N[C@@H]([C@@H](C)O)C(=O)N1)[C@@H](C)O)C(=O)N1CCC[C@H]1C(=O)N[C@@H](CO)C(=O)N[C@@H](CO)C(=O)N[C@H](C(=O)N[C@@H](CC(N)=O)C(=O)N[C@H](C(=O)NCC(=O)N[C@@H](CO)C(=O)N[C@@H](CC(N)=O)C(=O)N[C@H](C(=O)N[C@@H](Cc1ccc(O)cc1)C(N)=O)[C@@H](C)O)C(C)C)[C@@H](C)O, also called 90; compound 90) [N^ε1-[2-[2-[2-(19-carboxynonadecanoylamino)ethoxy]ethoxy]acetyl]-[His14,Arg17,Pro21,Pro27]-h-amylin]
